For assay [1], the target named is MART-1 peptide on HLA-A*02:01 (human). The assay is described as follows: SPR, Biacore 3000, TCR amine-coupled to a CM5 chip, refolded pMHC injected up to 100 micromolar, 1:1 Langmuir model (Fig. 4); soluble, other.
Assay [2] shares this target. In words: SPR, Biacore 3000, TCR amine-coupled to a CM5 chip, refolded pMHC injected up to 100 micromolar, 1:1 Langmuir model (Fig. 4); weaker than αD26Y/βL98W (0.024) and wild-type DMF5 (9.5); soluble, other. A general note: SPR reads the build-up and loss of mass on a sensor chip optically.
The target is the same in assay [3]. The assay is described as follows: SPR, Biacore 3000, TCR amine-coupled to a CM5 chip, refolded pMHC injected up to 100 micromolar, 25 C, 1:1 Langmuir model (Fig. 2); soluble, other.
For assay [4] the target is unchanged. The assay is described as follows: SPR, Biacore 3000, TCR amine-coupled to a CM5 chip, refolded pMHC injected, 25 C, 1:1 Langmuir model; Table 2 draws on Fig. 2 and published work (PMID: 24550723); soluble, other.
Assay [5] shares this target. In words: SPR, Biacore 3000, TCR amine-coupled to a CM5 chip, refolded pMHC injected, 25 C; the same value stands in Table 2 r6, where the peptide is printed as AAG; soluble, other.

A word on the Kd: it is the constant that tells how readily two partners part at equilibrium. In assay [1], DMF5 TCR αD26Y/αY50W/βL98W had a Kd of 0.66 µM.
Regarding DMF5 TCR αD26Y/αY50A/βL98W, the Kd in assay [2] stood at 556 µM.
On to DMF5 TCR αD26Y, for which the Kd in assay [3] is 4.5 µM; in assay [4] it was 0.46 µM.
DMF5 TCR αD26Y/αY50F/βL98W came in with a Kd in assay [1] of 0.64 µM.
In assay [5], DMF5 TCR αD26Y/βL98W registered a Kd of 0.024 µM.
For DMF5 TCR αD26Y/αY50V/βL98W, in assay [1], the Kd was determined as 7.14 µM.
In turn, DMF5 TCR βL98W registered a Kd in assay [4] of 2.9 µM.

Source of the values: patent EP3172325B1.
